IntAct's records for PubMed 35512704

B1: Mothers against decapentaplegic homolog 4 (Homo sapiens), Q13485 (parent)
chain: MDNMSITNTPTSNDACLSIVHSLMCHRQGGESETFAKRAIESLVKKLKEKKDELDSLITAITTNGAHPSKCVTIQRTLDGRLQVAGRKGFPHVIYARLWRWPDLHKNELKHVKYCQYAFDLKCDSVCVNPYHYERVVSPGIDLSGLTLQSNAPSSMMVKDEYVHDFEGQPSLSTEGHSIQTIQHPPSNRASTETYSTPALLAPSESNATSTANFPNIPVASTSQPASILGGSHSEGLLQIASGPQPGQQQNGFTGQPATYHHNSTTTWTGSRTAPYTPNLPHHQNGHLQHHPPMPPHPGHYWPVHNELAFQPPISNHPAPEYWCSIAYFEMDVQVGETFKVPSSCPIVTVDGYVDPSGGDRFCLGQLSNVHRTEAIERARLHIGKGVQLECKGEGDVWVRCLSDHAVFVQSYYLDREAGRAPGDAVHKIYPSAYIKVFDLRQCHRQMQQQAATAQAAAAAQAAAVAGNIPGPGSVGGIAPAISLSAAAGIGVDDLRRLCILRMSFVKGWGPDYPRQSIKETPCWIEIHLHRALQLLDEVLHTMPIADPQPLD
partner: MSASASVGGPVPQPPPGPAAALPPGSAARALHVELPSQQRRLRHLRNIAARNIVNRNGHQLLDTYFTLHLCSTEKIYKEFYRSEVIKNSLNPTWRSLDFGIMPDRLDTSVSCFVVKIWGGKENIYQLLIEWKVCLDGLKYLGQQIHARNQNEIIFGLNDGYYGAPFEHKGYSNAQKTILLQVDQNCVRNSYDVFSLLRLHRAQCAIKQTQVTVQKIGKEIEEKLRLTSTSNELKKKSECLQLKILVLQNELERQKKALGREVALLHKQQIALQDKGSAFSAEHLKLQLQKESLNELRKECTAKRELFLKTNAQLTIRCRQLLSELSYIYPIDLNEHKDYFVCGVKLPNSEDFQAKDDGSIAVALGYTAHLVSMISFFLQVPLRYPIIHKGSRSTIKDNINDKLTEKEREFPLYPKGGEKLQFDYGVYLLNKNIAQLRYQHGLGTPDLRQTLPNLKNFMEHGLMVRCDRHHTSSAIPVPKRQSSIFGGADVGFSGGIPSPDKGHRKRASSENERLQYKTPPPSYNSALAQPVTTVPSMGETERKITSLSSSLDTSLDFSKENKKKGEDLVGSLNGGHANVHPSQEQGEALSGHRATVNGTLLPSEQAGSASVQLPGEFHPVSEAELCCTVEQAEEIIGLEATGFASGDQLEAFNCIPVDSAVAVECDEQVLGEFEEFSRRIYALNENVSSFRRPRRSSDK
B2: Mothers against decapentaplegic homolog 4 (Homo sapiens), Q13485 (parent)
chain: B1 chain
partner: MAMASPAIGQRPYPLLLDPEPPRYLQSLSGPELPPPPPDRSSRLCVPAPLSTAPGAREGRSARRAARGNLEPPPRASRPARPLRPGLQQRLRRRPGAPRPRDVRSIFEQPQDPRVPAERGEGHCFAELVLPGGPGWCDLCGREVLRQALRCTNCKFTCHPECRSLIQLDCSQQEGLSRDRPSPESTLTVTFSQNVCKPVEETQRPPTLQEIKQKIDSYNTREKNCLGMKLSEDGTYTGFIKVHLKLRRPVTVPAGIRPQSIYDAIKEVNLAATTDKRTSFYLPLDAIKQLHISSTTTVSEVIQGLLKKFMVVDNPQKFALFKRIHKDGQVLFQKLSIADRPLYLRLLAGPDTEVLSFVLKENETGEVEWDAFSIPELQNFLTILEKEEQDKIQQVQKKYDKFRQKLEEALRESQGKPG
B3: Mothers against decapentaplegic homolog 4 (Homo sapiens), Q13485 (parent)
chain: B1 chain
partner: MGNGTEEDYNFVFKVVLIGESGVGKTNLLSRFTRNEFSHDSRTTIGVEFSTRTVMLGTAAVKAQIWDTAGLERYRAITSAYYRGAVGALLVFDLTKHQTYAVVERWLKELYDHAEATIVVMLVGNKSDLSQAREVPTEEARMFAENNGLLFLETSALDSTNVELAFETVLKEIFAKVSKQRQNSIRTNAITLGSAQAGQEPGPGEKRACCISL
B4: Mothers against decapentaplegic homolog 4 (Homo sapiens), Q13485 (parent)
chain: B1 chain
partner: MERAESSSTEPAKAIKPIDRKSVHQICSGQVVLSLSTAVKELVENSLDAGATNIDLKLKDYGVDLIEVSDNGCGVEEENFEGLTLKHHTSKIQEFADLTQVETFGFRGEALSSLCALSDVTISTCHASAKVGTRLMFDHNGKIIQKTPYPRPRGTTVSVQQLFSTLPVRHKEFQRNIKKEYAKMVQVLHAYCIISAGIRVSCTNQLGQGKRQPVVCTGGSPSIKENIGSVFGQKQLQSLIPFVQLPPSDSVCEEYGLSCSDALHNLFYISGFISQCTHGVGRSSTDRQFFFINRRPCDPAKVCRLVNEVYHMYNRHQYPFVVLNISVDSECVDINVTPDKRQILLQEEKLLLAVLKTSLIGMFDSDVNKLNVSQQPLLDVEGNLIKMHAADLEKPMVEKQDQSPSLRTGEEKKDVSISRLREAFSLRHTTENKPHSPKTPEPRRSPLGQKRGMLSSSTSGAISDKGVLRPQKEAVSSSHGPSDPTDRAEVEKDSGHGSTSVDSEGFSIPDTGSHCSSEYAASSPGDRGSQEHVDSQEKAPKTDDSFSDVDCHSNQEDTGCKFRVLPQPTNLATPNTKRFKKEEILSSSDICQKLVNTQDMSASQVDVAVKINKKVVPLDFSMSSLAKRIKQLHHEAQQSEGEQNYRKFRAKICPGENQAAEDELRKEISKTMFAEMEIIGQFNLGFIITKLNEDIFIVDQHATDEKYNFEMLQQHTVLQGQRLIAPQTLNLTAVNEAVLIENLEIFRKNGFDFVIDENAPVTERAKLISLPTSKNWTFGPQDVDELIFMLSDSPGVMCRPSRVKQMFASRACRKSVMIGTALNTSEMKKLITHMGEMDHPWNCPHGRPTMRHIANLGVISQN
B5: Mothers against decapentaplegic homolog 4 (Homo sapiens), Q13485 (parent)
chain: B1 chain
partner: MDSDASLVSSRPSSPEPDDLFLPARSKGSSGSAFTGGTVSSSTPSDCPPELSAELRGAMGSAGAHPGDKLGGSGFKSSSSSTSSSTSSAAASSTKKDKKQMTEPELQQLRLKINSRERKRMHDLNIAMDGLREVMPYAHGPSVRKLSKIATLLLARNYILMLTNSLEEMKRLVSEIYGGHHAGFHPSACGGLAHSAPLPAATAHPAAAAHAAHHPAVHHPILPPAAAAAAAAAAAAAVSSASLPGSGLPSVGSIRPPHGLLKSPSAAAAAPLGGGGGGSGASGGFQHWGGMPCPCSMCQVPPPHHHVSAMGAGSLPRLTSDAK
B6: Mothers against decapentaplegic homolog 4 (Homo sapiens), Q13485 (parent)
chain: B1 chain
partner: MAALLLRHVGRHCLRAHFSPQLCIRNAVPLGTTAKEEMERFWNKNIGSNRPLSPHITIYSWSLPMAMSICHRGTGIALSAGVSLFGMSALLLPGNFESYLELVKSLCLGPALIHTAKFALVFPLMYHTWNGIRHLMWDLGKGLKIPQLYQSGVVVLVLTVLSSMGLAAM
B7: Mothers against decapentaplegic homolog 4 (Homo sapiens), Q13485 (parent)
chain: B1 chain
partner: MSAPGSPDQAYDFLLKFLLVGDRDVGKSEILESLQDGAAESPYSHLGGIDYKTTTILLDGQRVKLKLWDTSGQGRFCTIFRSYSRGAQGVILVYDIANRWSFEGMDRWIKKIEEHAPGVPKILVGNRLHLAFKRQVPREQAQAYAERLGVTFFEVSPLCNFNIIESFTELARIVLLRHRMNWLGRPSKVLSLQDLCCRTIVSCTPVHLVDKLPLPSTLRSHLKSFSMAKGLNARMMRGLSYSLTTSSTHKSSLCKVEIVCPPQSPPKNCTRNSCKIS
B8: Mothers against decapentaplegic homolog 4 (Homo sapiens), Q13485 (parent)
chain: B1 chain
partner: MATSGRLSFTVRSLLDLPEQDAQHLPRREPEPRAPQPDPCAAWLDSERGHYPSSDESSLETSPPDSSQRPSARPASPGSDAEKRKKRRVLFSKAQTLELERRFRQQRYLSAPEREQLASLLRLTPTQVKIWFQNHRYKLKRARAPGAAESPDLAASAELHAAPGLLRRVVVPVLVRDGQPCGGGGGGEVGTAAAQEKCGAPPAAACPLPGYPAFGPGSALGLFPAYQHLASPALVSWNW

Variants of: B1
Conditions: with uvrag_human UVRAG

Row | Variant | effect of a mutation on the interaction
1 | R361C | with no effect

Variants of: B1
Conditions: with uvrag_human UVRAG
Remark: another data set of the same source

Row | Variant | effect of a mutation on the interaction
2 | R361H | with no effect

Variants of: B1
Conditions: with uvrag_human UVRAG
Remark: another data set of the same source

Row | Variant | effect of a mutation on the interaction
3 | G386D | with no effect

Variants of: B1
Conditions: with uvrag_human UVRAG
Remark: another data set of the same source

Row | Variant | effect of a mutation on the interaction
4 | D351H | with no effect

Variants of: B2
Conditions: with rasf5_human RASSF5, Q8WWW0

Row | Variant | effect of a mutation on the interaction
5 | G386D | with no effect

Variants of: B2
Conditions: with rasf5_human RASSF5, Q8WWW0
Remark: another data set of the same source

Row | Variant | effect of a mutation on the interaction
6 | R361H | with no effect

Variants of: B3
Conditions: with rab25_human RAB25, P57735

Row | Variant | effect of a mutation on the interaction
7 | G386D | with no effect

Variants of: B4
Conditions: with pms2_human PMS2, P54278

Row | Variant | effect of a mutation on the interaction
8 | R361H | with no effect

Variants of: B4
Conditions: with pms2_human PMS2, P54278
Remark: another data set of the same source

Row | Variant | effect of a mutation on the interaction
9 | R361C | with no effect

Variants of: B4
Conditions: with pms2_human PMS2, P54278
Remark: another data set of the same source

Row | Variant | effect of a mutation on the interaction
10 | D351H | with no effect

Variants of: B4
Conditions: with pms2_human PMS2, P54278
Remark: another data set of the same source

Row | Variant | effect of a mutation on the interaction
11 | G386D | with no effect

Variants of: B5
Conditions: with olig2_human OLIG2, Q13516

Row | Variant | effect of a mutation on the interaction
12 | G386D | with no effect

Variants of: B5
Conditions: with olig2_human OLIG2, Q13516
Remark: another data set of the same source

Row | Variant | effect of a mutation on the interaction
13 | D351H | with no effect

Variants of: B5
Conditions: with olig2_human OLIG2, Q13516
Remark: another data set of the same source

Row | Variant | effect of a mutation on the interaction
14 | R361C | with no effect

Variants of: B5
Conditions: with olig2_human OLIG2, Q13516
Remark: another data set of the same source

Row | Variant | effect of a mutation on the interaction
15 | R361H | with no effect

Variants of: B6
Conditions: with c560_human SDHC

Row | Variant | effect of a mutation on the interaction
16 | D351H | with no effect

Variants of: B6
Conditions: with c560_human SDHC
Remark: another data set of the same source

Row | Variant | effect of a mutation on the interaction
17 | R361C | with no effect

Variants of: B6
Conditions: with c560_human SDHC
Remark: another data set of the same source

Row | Variant | effect of a mutation on the interaction
18 | R361H | with no effect

Variants of: B6
Conditions: with c560_human SDHC
Remark: another data set of the same source

Row | Variant | effect of a mutation on the interaction
19 | G386D | with no effect

Variants of: B7
Conditions: with rb40a_human RAB40A

Row | Variant | effect of a mutation on the interaction
20 | G386D | with no effect

Variants of: B8
Conditions: with nkx28_human NKX2-8, O15522

Row | Variant | effect of a mutation on the interaction
21 | G386D | with no effect

Variants of: B8
Conditions: with nkx28_human NKX2-8, O15522
Remark: another data set of the same source

Row | Variant | effect of a mutation on the interaction
22 | D351H | with no effect

Variants of: B8
Conditions: with nkx28_human NKX2-8, O15522
Remark: another data set of the same source

Row | Variant | effect of a mutation on the interaction
23 | R361C | with no effect
